In the supplement of paper PMC9170038:

Test system: MS2 coat protein
Assay: apparent KD of MS2 coat protein; designed switch direction (-1 OFF switch, 1 ON switch): 1; higher = weaker reporter binding
In short: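 SNAP-549-labelled MS2 coat protein was titrated, doubling from 0.7 or 1.5 nM to 3 µM, over designed RNA switches transcribed on Illumina chips by stalled E. coli RNA polymerase. Runs were done without input, with 200 uM small-molecule ligand, or with an oligonucleotide input. Apparent KD is the per-design median over clusters of curve-fitted normalised fluorescence.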

[1] = input ligand: microRNA oligo, concentration not stated
[2] = Eterna round: R95, input ligand: FMN 200 uM
[3] = Eterna round: R95, input ligand: microRNA oligo, concentration not stated
[4] = Eterna round: R95, input ligand: none

Sequence	apparent KD of MS2 coat protein (input ligand: FMN 200 uM) [nM]	apparent KD of MS2 coat protein [1] [nM]	apparent KD of MS2 coat protein (input ligand: none) [nM]	apparent KD of MS2 coat protein [2] [nM]	apparent KD of MS2 coat protein [3] [nM]	apparent KD of MS2 coat protein [4] [nM]
GAGGGACAGACCAACAUGAGGAUCACCCAUGUCCUCGGAGGUCAGGAUAUCCGGAGGUAGCCGAAGGAGAAGGGACGGUGAACC [AK SSNG3-V2-30.1] (Eterna round: R96, puzzle: Same State NG 3)	322	136	197	–	–	–
UCUUGGUUUUUGCUCGUUUUUUGUGUUGAACAUGAGGAUCACCCAUGUAUUGUACGGUCCAAUUUGAUAGUGGUCCG [JMF 28] (puzzle: Sensor for hsa-mir-208a)	–	–	–	25.5	14.9	25.7
UCUUGGUUUUUGCUCGUUUUUUGUGUUGAACAUGAGGAUCACCCAUGUAUUGUACGGUCCAAUUUAGUGGUAGUCCG [JMF 67] (puzzle: Sensor for hsa-mir-208a)	–	–	–	38.4	25.3	38.7
GUUAGGAAUCUAGCACACAUGAGGAUCACCCAUGUUAGUGGGAAGGAUAUGGUACAGAAACUGUACCAGAAGGUCUUAUUGUUU [Omei SS(NG) 3 AV14] (Eterna round: R96, puzzle: Same State NG 3)	93.8	67.6	142	–	–	–
GCGAGCGUACUUGCAGACAUGAGGAUCACCCAUGUAACUGGACAGGAUAUGGUACCGUUUCGGUACCAGAAGGGUUUAUCAUGU [JL SSNG3 3.55] (Eterna round: R96, puzzle: Same State NG 3)	167	140	193	–	–	–
GGAGCCAAGGCAGGAUAUUCAUAUAAAUAAACAUGAGGAUCACCCAUGUAGGCCAGAAGGCCUUGGGAGAAGGGCCAUGGCUCG [Xeonanis - 13 mod6] (Eterna round: R96, puzzle: Same State NG 2)	19.4	69.8	121	–	–	–
AGGCUCAGAGCAGGAUAUAUGUCUCGAGCUUCGGCUCGAGACAUGAGGAUCACCCAUGUAAUAACAUAGAAGGGCUCUGAGCCA [SSNG2/1-B1] (Eterna round: R96, puzzle: Same State NG 2)	11.2	45.8	63.4	–	–	–
AUUAUUAAUGCAGGAUAUGAUUAACAUGAGGAUCACCCAUGUGGUGUUGUGAGUAAGGAGAGUGAUCAGAAGGGCAUUUUUUUU [JMF's solution 6] (Eterna round: R96, puzzle: Same State NG 2)	–	463	–	–	–	–
UGUUGUAUUACAGGAUAUCUAGUAUUUUCAUUUAGAGAAGGGUAUUCACAUGAGGAUCACCCAUGUAUAUACGAGGAAGUUGUG [JMF's solution 45] (Eterna round: R96, puzzle: Same State NG 1)	–	34.7	–	–	–	–
GCAAUGGCGGUAGGAUAUCUAGGAUAUGGGAAAGACUAAGUCUGUAGGUCACCUAACCCAGAAGGAGAGAAGGACCCUGUAAGG [pwkr ssNG2 2FMN + F9.24] (Eterna round: R96, puzzle: Same State NG 2)	43.2	9.31	30.8	–	–	–
AUUGCUAUCACAGGAUAUCAUGCGAAAAUCGCGUGAGAAGGGUGGACUCUGUCAUUCACGGAGGACAUGAGGAUCACCCAUGUC [SS NG10LRO16] (Eterna round: R96, puzzle: Same State NG 1)	363	18.9	45.8	–	–	–
UUAACAUGAGGAUCACCCAUGUAUACGUAGUUUGCAUUUUGACAGGAUAUUGAAUAUCUAUAUAGCAAGAAGGGUCGUUAGUCU [JR_SSNG3_Sub007] (Eterna round: R96, puzzle: Same State NG 3)	61	49.1	56.7	–	–	–
GUUACAUGAGGAUCACCCAUGUAUGUGUGGGAGUAAGUGUCUUAGGAUAUCUAUCAUUUAAUUGAAGAGAAGGAAGAUUGUUGU [JMF's solution 99] (Eterna round: R96, puzzle: Same State NG 3)	140	71.2	113	–	–	–
AAAGAAAACGCAGGAUAUCCCGGAAAAGAUCCGGGAGAAGGGUGACCGGUACAUGAGGAUCACCCAUGUAGAGCAAAGGCUCAA [Ceonbeti] (Eterna round: R96, puzzle: Same State NG 1)	232	133	128	–	–	–
AGUCCAGCCUGAGCUGGACAAAAGCAUGUACAUGAGGAUCACCCAUGUCGUGUACAAGCUUUUUGCUCGUCUUAAAA [Zipper 46 - 5] (puzzle: Sensor for hsa-mir-208a)	–	–	–	376	12.4	334
UUAGUCAUGUAAGGAUAUGCAGCCGUUUCGGCUGCAGAAGGUACUAUAAUUACAUGAGGAUCACCCAUGUUAUAAAAUUUAUAU [JL SSNG1 1.24] (Eterna round: R96, puzzle: Same State NG 1)	19.9	25	36.6	–	–	–
GUGGCGGGUUGAGGAUAUUGGUUGCAUAUGUUUAACAUGAGGAUCACCCAUGUGGGUUGCGGUUUCGAGAAGGUAGGUUGCUGG [salish99_SSNG2_r04_044] (Eterna round: R96, puzzle: Same State NG 2)	155	95.3	140	–	–	–
AUAAAACAUGAGGAUCACCCAUGUCAACAAAUUCGAGGAUAUGGGCAAAUAAAAUAAGAACCAGAAGGCGAAUAAU [salish99_ss1_r3_038] (puzzle: Same State 1)	–	–	–	18.1	104	86.1
AUUCGAUAGAUAGGAUAUCACCAUACAUGAGGAUCACCCAUGUUGACCACGCUGGUUAUUCAUACUGAGAAGGAUCUUGAUGAC [JR_SSNG2_Sub005] (Eterna round: R96, puzzle: Same State NG 2)	27.8	31.1	52.2	–	–	–
GGAGCCAGCACCGAGGAUAUUCAUAUUAAAACAUGAGGAUCACCCAUGUAGGCCAGAAGGCCUUGGGAGAAGGCGGACUGGCUCG [Xeonanis - 11] (puzzle: Same State 2)	–	–	–	28.5	221	976
GCUACAUGAGGAUCACCCAUGUGUGUGUGGGAGUGAGUGGCUUAGGAUAUCUAUGAUUUUAGUUGAGAGAAGGAGGAUUGCUGU [SS-NG3-LRO09] (Eterna round: R96, puzzle: Same State NG 3)	471	317	336	–	–	–
UACUUGGUGGUAGGAUAUGUAGGAUAUGGCGAGAGCUAAGCUUGGAAGUCACUUCAGCCAGAAGGACAGAAGGACCAGUAUCUC [pwkr ssNG2 2FMN + F9.11] (Eterna round: R96, puzzle: Same State NG 2)	1450	11.5	81.6	–	–	–
AGCGAACAGGCUAACAUGAGGAUCACCCAUGUGGACUCAUGUUAGGAUAUCGGGAAGGAGGAAACCGAGAAGGGACGGUGAGCC [AK SSNG3-V2-46] (Eterna round: R96, puzzle: Same State NG 3)	332	14.6	30.6	–	–	–
AGUCCAGCAAGAGCUGGACAAAAGCAUGUACAUGAGGAUCACCCAUGUUCAUGUACAAGCUUUUUGCAAGUCAAAAG [Mat - hsa-mir-208a - Mod of JL - 73] (puzzle: Sensor for hsa-mir-208a)	–	–	–	321	23.9	416
CUCAACAACACAGGAUAUCCAGGGAAAAGACCUGGAGAAGGGUGACCAACAUGAGGAUCACCCAUGUGACGGCUAGACCGUCUG [Isquce] (Eterna round: R96, puzzle: Same State NG 1)	593	24	249	–	–	–
GUGGUCAGACAUGAGGAUCACCCAUGUGGAAUAAAUAAGGGAGAGGAUAUAUAAUAUAGGAUAUAAUAGAAGGCUCGGUUGGUG (Eterna round: R96, puzzle: Same State NG 3)	–	89.5	–	–	–	–
CCAAUGUACAAUUUAGAUCUACAUGAGGAUCACCCAUGUACAGAGGAUAUCAGCUCGUUUAGAGCUGAGAAGGCUGAAUUAAUU [SSNG3/3-A3] (Eterna round: R96, puzzle: Same State NG 3)	111	139	327	–	–	–
GGAGCCGGCACUGAGGAUAUUCAUAUUAAAACAUGAGGAUCACCCAUGUAGGCCAGAAGGCCUUGGGAGAAGGCAGGUCGGCUCG [salish99_ss2_r3_075] (puzzle: Same State 2)	–	–	–	27.1	408	901
